Consider one molecule from US7052704B2, “Methods and compositions for lipidization of hydrophilic molecules” (University of Southern California, priority 1995, dated 2006).

One data set has as its system Caco-2 monolayers. The experiment in a line: Transport of single- and multiple-conjugates across Caco-2 monolayers in transwells. The data set is classed as cell-based, Human. The method, then:
Confluent cell monolayers, 2 to 3 weeks old, and having a TEER value of approximately 500 Ωcm^2, were first incubated with Dulbecco's MEM containing 1% of FBS for 30 min at 37° C. Subsequently, the incubation medium was removed, and the ^125I-BBI (10 μg/ml) conjugates in 1.5 ml of the medium was added to the apical chamber of the transwells. To the basal chamber, 2.5 ml of the medium was added and the transwells were incubated at 37° C. At predetermined times, the entire basal chamber medium (2.5 ml) from each transwell was removed and counted for radioactivity using a gamma counter. In each experiment, typically seven samples were taken at 1, 2, 3, 4, 5, 6 and 24 hr post-incubation. After the 24 hr samples were taken, the cell monolayers were rinsed three times with ice-cold PBS, cut out of the inserts, and counted for accumulated radioactivity using a gamma counter.
The integrity of the ^125I-BBI conjugates transported across the monolayers was studied using Sephadex G50 gel-filtration chromatography. Briefly, after the basal medium was sampled at 24 hr, 1.0 ml of the medium was centrifuged at 2000 rpm and then eluted from a G50 column (10 ml) using PBS; 1 ml fractions were collected and the fraction-associated radioactivity was determined using a gamma counter. Intact conjugates eluted at column void volume and fragments smaller than 1 kDa were eluted at or above the column volume.
In the transwell experiments, the conjugates were incubated with the apical side of the cells for 1 hr at 37° C. The transwells were then rinsed three times with ice-cold PBS and then reincubated with serum free medium. The release of the conjugates into the apical and the basal medium was chased for 24 hr by counting the entire basal or the apical medium at different times. The total counts obtained at the end of the chase period (transwells+media counts were added, and the release of the conjugates (% of total) at different times was calculated. To ensure that the counts obtained in the transwells at 24 hr were due to the presence of the conjugates in the cells and not non-specific binding to the plastic, the transwells were exposed to trypsin for 10 min, rinsed three times with ice-cold pbs, and subsequently counted for accumulated radioactivity.
BBI was modified with 2 or 4 palmitic acids, and the transport was determined in transwells. The cumulative transport of BBI, BBI modified with 4 palmitic acids, and BBI modified with 2 palmitic acids in Caco-2 monolayers were determined as BBI (ng/monolayer) ± SEM, n=3. The order of the transport extent was BBIssPal(4)>BBI>BBIssPal(2). The results of the internalization of the conjugates into the same cells were determined as the ng of BBI internalized per monolayer. […] The basal media obtained at 24 hr from the transwells was analyzed using a G50 column. […] However, a small, but significant, amount of the basal media of BBIssPal(2) consisted of intact conjugate. This quantity consisted of between about 10 and about 20% of the total radioactivity present in the basal medium.

Data set [1] in a line: iv-biodistribution of 125I-BBI conjugates.
The test system of the next data set is C3H 10T1/2 cells. In words: Plating efficiency in conjunction with transformation assay. The data set is classed as cell-based. Particulars: 200 cells/dish, 10 days; conjugates 1.0 μg/ml after MCA 1 μg/ml 24 hr. As to the method: The plating efficiency (PE) of the cells was also studied in conjunction with each of the transformation assays. To determine the PE of the cells in the different treatment groups, cells (200 cells/dish) were seeded into three 60-mm petri dishes per experiment group and treated in the identical manner as the transformation assay cells. The cells in these assays were terminated at 10 days, fixed with 100% methanol, and stained with giemsa; the colonies of 50 cells or more visible under a microscope were then counted. The plating efficiency is defined as the (number of colonies/number of cells seeded)*100.

For data set [2], the system named is Human colon carcinoma cells (Caco-2). The experiment in a line: Uptake of 125I-BBI conjugates into Caco-2 cell monolayers.
For data set [3] the following is noted: cited from earlier work.
The nature of data set [4]: Skin absorption of 125I-labeled BBI or BBIssPal. Particulars: 5 μl of 0.5 mg/ml on 0.38 cm^2, 30 minutes, 23° C.

B1: BBI: hydrophilic protein which has low uptake into cells and is not orally bioavailable; used for chemoprevention (protein, UniProt P01055 40-110, looked up)
Bowman-Birk type proteinase …: DDESSKPCCDQCACTKSNPPQCRCSDMRLNSCHSACKSCICALSYPAQCFCVDITDFCYEPCKPSEDDKEN
Regarding B1, the “order of the transport extent (cumulative transport)” value in the data set with Caco-2 monolayers (Caco-2 transwells, n=3) was “BBIssPal(4)>BBI>BBIssPal(2)”. In addition, the “transcytosis across the monolayers (G50 analysis of basal media)” value in the data set on Caco-2 monolayers (basal media at 24 hr) is listed as “neither BBI nor BBIssPal(4) was transcytosed”. Besides, in data set [1] (3 mg/kg), the “kidney accumulation” value is listed as “rapidly accumulated in the kidneys”. The “blood level and removal from circulation” value in data set [1] (3 mg/kg, 0.5, 3 and 24 hr) is “rapidly excreted from the body without attaining high blood levels”. Also, the “Plating Efficiency (%)” value in the data set with C3H 10T1/2 cells is on record as 24 ± 2.0%. Moreover, the “Uptake (ng BBI/mg of cell protein)/hr” value in data set [2] (1% FBS, 10 μg/ml, 60 min, 37° C., ± SEM, three monolayers) is 2.2 ± 0.17 (ng BBI/mg of cell protein)/hr; in data set [2] (10% FBS, 10 μg/ml, 60 min, 37° C., ± SEM, three monolayers) it was 1.3 ± 0.02 (ng BBI/mg of cell protein)/hr; in data set [2] (BSA/FA: fatty acid-loaded BSA 0.1% (3-molar excess of palmitic acid)), 3.9 ± 0.00 (ng BBI/mg of cell protein)/hr; in data set [2] (BSA: fatty acid-free BSA 0.1%) it was 4.8 ± 0.00 (ng BBI/mg of cell protein)/hr; in data set [2] (DTT-treated (50 mM, 5 min 60° C. and 25 min 37° C.), serum-free medium) it was 5.2 ± 0.00 (ng BBI/mg of cell protein)/hr; in data set [2] (Untreated, serum-free medium), 4.8 ± 0.00 (ng BBI/mg of cell protein)/hr. Moreover, the “Uptake (ng BBI/mg of cell protein)/hr” value is 4.8 ± 0.00 (ng BBI/mg of cell protein)/hr in data set [2] (serum free (BSA-free) Dulbecco medium) and 3.9 ± 0.19 (ng BBI/mg of cell protein)/hr in data set [2] (serum free, 10 μg/ml, 60 min, 37° C., ± SEM, three monolayers). For the same molecule, the “effect of defatted-BSA on uptake” value in data set [2] (defatted-BSA 0.1% in medium) is given as “not affected”. The “effect of fatty acid-loaded BSA on uptake” value in data set [2] (fatty acid-loaded BSA 0.1%) is listed as “again not affected”. In data set [2] (serum-free medium), the “effect of exposure to DTT on uptake” value is listed as “did not cause a reduction in the uptake”. Besides, the “oral bioavailability” value in data set [3] is reported as “not orally bioavailable”. Also, the “stability in the GI tract” value in data set [3] (mammalian proteases in the gut, Yavelow et al. 1983) is given as “stable in the GI tract”. Further, the “absorption into the mouse skins” value in data set [4] was 0.14 μg/cm^2.
